In article PMC3708853:

Experiments:
[1] = target: CD47 on Jurkat T cells (human (endogenous in Jurkat)) (UniProt Q08722)
[2] = target: wild-type CD47 re-expressed in CD47-deficient JinB8 T cells (UniProt Q08722)

Substance | reduction of CD69 mRNA expression (real-time PCR) in Jurkat T cells activated by anti-CD3 antibody for 2 hours, BAD-1 10 µg/ml; no block in CD47-deficient JinB8 T cells [1] [%] | inhibition of CD69 induction (mRNA, real-time PCR) in anti-CD3-activated JinB8 cells transfected with wild-type CD47 [2] [%] | reduction of CD69 mRNA expression (real-time PCR) in Jurkat T cells activated by anti-CD3 antibody for 2 hours, TSP-1 10 µg/ml; no inhibition in CD47-deficient JinB8 T cells [1] [%]
Blastomyces adhesin-1 (BAD-1), native protein purified from B. dermatitidis yeast (natural protein) | 65 | 34.9 | –
recombinant thrombospondin-1 (TSP-1) (from UniProt P07996 19-1170) (natural protein) | – | 35.1 | 45
